Results on four substances are retold here after paper PMC8785239.

In this assay the target is fluorescein-labeled sulfopeptide. Briefly: fluorescence polarisation. (In general: Fluorescence polarisation rises when a labelled molecule tumbles more slowly, as on binding a larger partner.)

As for SH2-E38P (domain or fragment), the fold improvement in affinity over SH2-wt is 17 fold. The substance SH2-S37H (domain or fragment) yielded a fold improvement in affinity for sulfopeptide over phosphopeptide of 1.4 fold. On the same count and under the same terms, to SH2-S37H/E38P (domain or fragment) belongs 6.6 fold.

As to SH2-T39F (domain or fragment), the fold improvement in affinity over SH2-wt is over 35 fold.
